± gives the uncertainty stated by the source.
Assay: self-splicing fitness, log relative to wild type (ln ratio); higher = more splicing; Tetrahymena group I intron in knt gene, E. coli kanamycin selection, DiMSum; sequences stand for … in CUCUCU…GGAGGGAAAAGUUAUCAGGCAUGCACCUGGUAGCUAGUCUUUAAACCAAUAGAUUGCAUCGGUUUAAAAGGCAAGACCGUCAAAUUGCGGGAAAGGGGUCAACAGCCGUUCAGUACCAAGUCUCAGGGGAAACUUUGAGAUGGCCUUGCAAAGGGUAUGGUAAUAAGCUGACGGACAUGGUCCUAACCACGCAGCCAAGUCCUAAGUCAACAGAUCUUCUGUUGAUAUGGAUGCAGUUCACAGACUAAAUGUCGGUCGGGGAAGAUGUAUUCUUCUCAUAAGAUAUAGUCGGACCUCUCCUUAAUGGGAGCUAGCGGAUGAAGUGAUGCAACACUGGAGCCGCUGGGAACUAAUUUGUAUGCGAAAGUAUAUUGAUUAGUUUUGGAGUACUCGUGGUCG
How it was run: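 DiMSum derived fitness as the error-weighted combination of fold changes across replicates, kanamycin versus no kanamycin, normalised to wild type. E. coli BL21(DE3) held the library, which randomised all eight P1ex-region intron nucleotides within the knt kanamycin-resistance gene on pET-22b(+). Six replicate transformations grew overnight at 37°C or 30°C on LB agar with or without 25 μg/mL kanamycin, also containing 100 μg/mL carbenicillin, 50 μM IPTG and 0.2% rhamnose, and pooled colonies were amplicon-sequenced on an Illumina HiSeq 2500.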

Sequence | self-splicing fitness (ln) (30 °C) | self-splicing fitness (ln) (37 °C)
CUAUAGCAAUAUUACGGCUG | -1.02 ± 0.12 | -0.165 ± 0.15
UGGAAGCAAUAUUACGCGAG | -1.26 ± 0.19 | 0.167 ± 0.16
UUUAAGCAAUAUUACGGUUG | -2.33 ± 0.13 | -1.76 ± 0.14
UACGAGCAAUAUUACGAAAC | -2.05 ± 0.48 | 
CUUUAGCAAUAUUACGAAUA | -3.48 ± 0.48 | 
CCAUAGCAAUAUUACGGUAA | -3.53 ± 0.33 | -3.26 ± 0.35
AUGGAGCAAUAUUACGUCGA | -3.25 ± 0.3 | -3.1 ± 0.43
AGCCAGCAAUAUUACGGAAC | -2.72 ± 0.18 | -3.1 ± 0.3
CCAAAGCAAUAUUACGCUUG | -3.7 ± 0.18 | -2.93 ± 0.2
GUUCAGCAAUAUUACGAGGC | -2.38 ± 0.48 | -1.27 ± 0.2
AGGUAGCAAUAUUACGCCAA | -1.19 ± 0.02 | -0.512 ± 0.035
UCCGAGCAAUAUUACGAGCG | -3.16 ± 0.18 | -2.47 ± 0.24
GCUUAGCAAUAUUACGUCGA | -1.67 ± 0.088 | -0.777 ± 0.11
CAGUAGCAAUAUUACGUCAU | -3.37 ± 0.22 | -2.4 ± 0.26
CAAAAGCAAUAUUACGGAAA | -2.67 ± 0.5 | -2.08 ± 0.3
GUACAGCAAUAUUACGGUAC | -4.08 ± 0.43 | -2.8 ± 0.26
UAGGAGCAAUAUUACGUUCC | -2.97 ± 0.4 | 
AAGGAGCAAUAUUACGAUAA | -3.46 ± 0.25 | -1.94 ± 0.18
AGGGAGCAAUAUUACGCGUG | -2.4 ± 0.15 | -2.35 ± 0.23
ACCCAGCAAUAUUACGAGCA | -0.745 ± 0.08 | -1.31 ± 0.088

Sequence | self-splicing fitness (ln) (30 °C) | self-splicing fitness (ln) (37 °C)
CGUCAGCAAUAUUACGAUUG | -0.506 ± 0.076 | -0.162 ± 0.084
AGAUAGCAAUAUUACGCCUG | -1.13 ± 0.12 | -0.496 ± 0.13
AUCCAGCAAUAUUACGAGCU | -2.2 ± 0.096 | -2.03 ± 0.17
CUUAAGCAAUAUUACGCAUG | -2.35 ± 0.12 | -1.5 ± 0.13
ACUAAGCAAUAUUACGUCCU | -0.876 ± 0.095 | 0.0118 ± 0.14
UUUAAGCAAUAUUACGGUUU | -2.53 ± 0.28 | -1.51 ± 0.22
CAUUAGCAAUAUUACGUGGC | -2.79 ± 0.36 | -2.09 ± 0.33
UCGAAGCAAUAUUACGACGC | 0.247 ± 0.19 | -0.514 ± 0.2
CAUGAGCAAUAUUACGACAU | -3.739 ± 0.028 | -2.9 ± 0.043
CGAUAGCAAUAUUACGGGUG | -0.832 ± 0.069 | -0.736 ± 0.074
UGAAAGCAAUAUUACGGCAC | -3.23 ± 0.16 | -1.48 ± 0.14
AAUUAGCAAUAUUACGAUCA | -0.335 ± 0.28 | -0.16 ± 0.22
UGACAGCAAUAUUACGGGAG | -1.59 ± 0.062 | -0.0844 ± 0.061
GCUGAGCAAUAUUACGCUCA |  | -2.75 ± 0.48
GUUUAGCAAUAUUACGAGGA | -2.48 ± 0.44 | -1.79 ± 0.37
GCACAGCAAUAUUACGCGCG | -1.05 ± 0.066 | -0.445 ± 0.075
GCAAAGCAAUAUUACGAUAG | -2.23 ± 0.11 | -0.989 ± 0.12
CGCAAGCAAUAUUACGGUAU | -4.65 ± 0.19 | -2.42 ± 0.13
GUUAAGCAAUAUUACGGGCU | -4.09 ± 0.34 | -1.85 ± 0.2
